This data set has as its system Escherichia coli TOP10. As to the kind of experiment: shrunken log2 fold change of peptide-encoding DNA abundance (4.5 h post-induction vs induction); higher = less antimicrobial activity (less host growth inhibition). The following applies: time post-induction: 4.5 h; library: site-saturation at positions 5, 18, 19, 20.

50 sequences from the supplement of paper PMC9112550, “Optimization of the antimicrobial peptide Bac7 by deep mutational scanning” (BMC Biology, 2022) can be followed below.
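Also: peptides expressed intracellularly from a pBAD plasmid library in pooled LB shake-flask culture, induced with 0.3% L-arabinose, DNA abundance read by NGS, three biological replicates, DESeq2 with apeglm shrinkage.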

Take RRIRKRPPRLPRPRPRPWIYPRP: the “shrunken log2 fold change” value was -0.00162.

Take RRIRSRPPRLPRPRPRPMYYPRP: the “shrunken log2 fold change” value is -0.468.

For the sequence RRIRFRPPRLPRPRPRPTITPRP, the “shrunken log2 fold change” value is -0.513.

As to RRIRQRPPRLPRPRPRPWRDPRP, the “shrunken log2 fold change” value turned out to be 0.19.

Turning to RRIRARPPRLPRPRPRPGGAPRP, the “shrunken log2 fold change” value is 0.76.

As to RRIRHRPPRLPRPRPRPHKYPRP, the “shrunken log2 fold change” value was -0.242.

For RRIRVRPPRLPRPRPRPSGAPRP, the “shrunken log2 fold change” value was 0.197.

For the sequence RRIRGRPPRLPRPRPRPDAAPRP, the “shrunken log2 fold change” value was 3.73.

On to RRIRKRPPRLPRPRPRPQVGPRP, for which the “shrunken log2 fold change” value was determined as 0.0646.

On to RRIRGRPPRLPRPRPRPWLIPRP, for which the “shrunken log2 fold change” value is -0.192.

For the sequence RRIRMRPPRLPRPRPRPGKWPRP, the “shrunken log2 fold change” value was found to be 0.204.

Take RRIRMRPPRLPRPRPRPKDCPRP: the “shrunken log2 fold change” value is -0.0772.

With RRIRHRPPRLPRPRPRPGRTPRP, the “shrunken log2 fold change” value turned out to be 0.208.

RRIRWRPPRLPRPRPRPFWTPRP: the “shrunken log2 fold change” value was found to be 0.0519.

RRIRGRPPRLPRPRPRPWLFPRP: the “shrunken log2 fold change” value is 0.458.

With RRIRERPPRLPRPRPRPPQEPRP, the “shrunken log2 fold change” value is 0.192.

For the sequence RRIRCRPPRLPRPRPRPFVVPRP, the “shrunken log2 fold change” value was -0.633.

On to RRIRTRPPRLPRPRPRPDNAPRP, for which the “shrunken log2 fold change” value is -0.223.

With RRIRCRPPRLPRPRPRPKECPRP, the “shrunken log2 fold change” value is 0.103.

Consider RRIRIRPPRLPRPRPRPFIGPRP, for which the “shrunken log2 fold change” value is -0.227.

As for RRIRKRPPRLPRPRPRPLAQPRP, the “shrunken log2 fold change” value is 0.801.

Consider RRIRGRPPRLPRPRPRPTCGPRP, for which the “shrunken log2 fold change” value was 0.915.

Consider RRIRMRPPRLPRPRPRPSDIPRP, for which the “shrunken log2 fold change” value was -0.192.

RRIRVRPPRLPRPRPRPTKGPRP: the “shrunken log2 fold change” value stood at 0.118.

With RRIRTRPPRLPRPRPRPYKYPRP, the “shrunken log2 fold change” value was -1.14.

RRIRMRPPRLPRPRPRPVSNPRP: the “shrunken log2 fold change” value is 0.499.

In the case of RRIRKRPPRLPRPRPRPLQQPRP, the “shrunken log2 fold change” value is 0.26.

Take RRIRMRPPRLPRPRPRPMISPRP: the “shrunken log2 fold change” value is -0.0256.

Consider RRIRTRPPRLPRPRPRPRWHPRP, for which the “shrunken log2 fold change” value came to 0.133.

As for RRIRMRPPRLPRPRPRPSIWPRP, the “shrunken log2 fold change” value was -0.255.

As to RRIRMRPPRLPRPRPRPDDYPRP, the “shrunken log2 fold change” value stood at 0.766.

Take RRIRCRPPRLPRPRPRPPCEPRP: the “shrunken log2 fold change” value is -0.0942.

Consider RRIRRRPPRLPRPRPRPAQVPRP, for which the “shrunken log2 fold change” value is -0.0303.

RRIRTRPPRLPRPRPRPACFPRP: the “shrunken log2 fold change” value is 0.252.

Turning to RRIRKRPPRLPRPRPRPPREPRP, the “shrunken log2 fold change” value is 0.689.

Regarding RRIRTRPPRLPRPRPRPQTLPRP, the “shrunken log2 fold change” value is -0.278.

In the case of RRIRYRPPRLPRPRPRPNNWPRP, the “shrunken log2 fold change” value is -0.398.

Consider RRIRYRPPRLPRPRPRPDKQPRP, for which the “shrunken log2 fold change” value was found to be 0.0233.

On to RRIRGRPPRLPRPRPRPVRCPRP, for which the “shrunken log2 fold change” value was found to be 0.814.

Turning to RRIRNRPPRLPRPRPRPKMRPRP, the “shrunken log2 fold change” value is 0.313.

As for RRIRTRPPRLPRPRPRPANFPRP, the “shrunken log2 fold change” value was -0.234.

In the case of RRIRTRPPRLPRPRPRPFGEPRP, the “shrunken log2 fold change” value was -0.101.

As for RRIRTRPPRLPRPRPRPETRPRP, the “shrunken log2 fold change” value was -0.0794.

With RRIRVRPPRLPRPRPRPIEDPRP, the “shrunken log2 fold change” value was -0.0208.

Take RRIRTRPPRLPRPRPRPNSVPRP: the “shrunken log2 fold change” value is -0.0853.

Consider RRIRPRPPRLPRPRPRPVNHPRP, for which the “shrunken log2 fold change” value is -0.277.

For RRIRNRPPRLPRPRPRPLVRPRP, the “shrunken log2 fold change” value is -0.372.

For the sequence RRIRCRPPRLPRPRPRPNIWPRP, the “shrunken log2 fold change” value was -0.178.

Regarding RRIRCRPPRLPRPRPRPMHCPRP, the “shrunken log2 fold change” value is -0.107.

RRIRKRPPRLPRPRPRPNKHPRP: the “shrunken log2 fold change” value was -0.122.
